Measurements from publication PMC3808539, “CtpB Assembles a Gated Protease Tunnel Regulating Cell-Cell Signaling during Spore Formation in Bacillus subtilis” (Cell, 2013).

Set-up: species or system Bacillus subtilis
Description: Figure S1 CtpB Autocleavage and Dimerization, Related to Figures 1 and 2 (A) SDS-PAGE analysis monitoring auto-degradation of CtpB. […] (C) Comparison of the gelfiltration profiles of wild-type CtpB and a Δ86 construct lacking the N-terminal dimerization domain. An SDS-PAGE analysis is shown below the chromatograms. (D) Cleavage assays comparing the activity of wild-type and Δ86 CtpB against the 4B predigested 4FAproc substrate.

| Molecule | auto-degradation |
| --- | --- |
| WT: wild-type CtpB, PDZ-protease of B. subtilis (protein, UniProt O35002 24-480, looked up) Carboxy-terminal processing …: GINLLEMDKPQTAAVPATAQADSERDKAMDKIEKAYELISNEYVEKVDREKLLEGAIQGMLSTLNDPYSVYMDKQTAKQFSDSLDSSFEGIGAEVGMEDGKIIIVSPFKKSPAEKAGLKPNDEIISINGESMAGKDLNHAVLKIRGKKGSSVSMKIQRPGTKKQLSFRIKRAEIPLETVFASEKKVQGHSVGYIAISTFSEHTAEDFAKALRELEKKEIEGLVIDVRGNPGGYLQSVEEILKHFVTKDQPYIQIAERNGDKKRYFSTLTHKKAYPVNVITDKGSASASEILAGALKEAGHYDVVGDTSFGKGTVQQAVPMGDGSNIKLTLYKWLTPNGNWIHKKGIEPTIAIKQPDYFSAGPLQLKEPLKVDMNNEDVKHAQVLLKGLSFDPGREDGYFSKDMKKAVMAFQDQNKLNKTGVIDTRTAETLNQQIEKKKSDEKNDLQLQTALKSLFVN | auto-degraded at position 36 and 42 |
| CtpBS309A: inactive CtpB S309A mutant (protein, UniProt O35002 24-480, looked up, variant S309A) Carboxy-terminal processing …: GINLLEMDKPQTAAVPATAQADSERDKAMDKIEKAYELISNEYVEKVDREKLLEGAIQGMLSTLNDPYSVYMDKQTAKQFSDSLDSSFEGIGAEVGMEDGKIIIVSPFKKSPAEKAGLKPNDEIISINGESMAGKDLNHAVLKIRGKKGSSVSMKIQRPGTKKQLSFRIKRAEIPLETVFASEKKVQGHSVGYIAISTFSEHTAEDFAKALRELEKKEIEGLVIDVRGNPGGYLQSVEEILKHFVTKDQPYIQIAERNGDKKRYFSTLTHKKAYPVNVITDKGSAAASEILAGALKEAGHYDVVGDTSFGKGTVQQAVPMGDGSNIKLTLYKWLTPNGNWIHKKGIEPTIAIKQPDYFSAGPLQLKEPLKVDMNNEDVKHAQVLLKGLSFDPGREDGYFSKDMKKAVMAFQDQNKLNKTGVIDTRTAETLNQQIEKKKSDEKNDLQLQTALKSLFVN | no further degradation |
